The results in this text go back to the supplement of paper PMC9112550, “Optimization of the antimicrobial peptide Bac7 by deep mutational scanning” (BMC Biology, 2022).
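Also: peptides expressed intracellularly from a pBAD plasmid library in pooled LB shake-flask culture, induced with 0.3% L-arabinose, DNA abundance read by NGS, three biological replicates, DESeq2 with apeglm shrinkage.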

The data set has as its system Escherichia coli TOP10. As to the kind of experiment: shrunken log2 fold change of peptide-encoding DNA abundance (4.5 h post-induction vs induction); higher = less antimicrobial activity (less host growth inhibition). The following applies: time post-induction: 4.5 h; library: site-saturation at positions 5, 18, 19, 20.
Turning to RRIRKRPPRLPRPRPRPAYCPRP, the “shrunken log2 fold change” value came to 0.0801.

RRIRDRPPRLPRPRPRPRAMPRP: the “shrunken log2 fold change” value was -0.0837.

For RRIRERPPRLPRPRPRPYGYPRP, the “shrunken log2 fold change” value is -0.0695.

In the case of RRIRKRPPRLPRPRPRPHKDPRP, the “shrunken log2 fold change” value was -0.113.

Consider RRIRYRPPRLPRPRPRPDNIPRP, for which the “shrunken log2 fold change” value is 0.0653.

Consider RRIRHRPPRLPRPRPRPYTLPRP, for which the “shrunken log2 fold change” value is -0.611.

With RRIRKRPPRLPRPRPRPVVPPRP, the “shrunken log2 fold change” value was -0.093.

Turning to RRIRLRPPRLPRPRPRPKHFPRP, the “shrunken log2 fold change” value was -0.494.

With RRIRTRPPRLPRPRPRPGTGPRP, the “shrunken log2 fold change” value is 0.257.

As to RRIRSRPPRLPRPRPRPDIKPRP, the “shrunken log2 fold change” value is -0.336.

Turning to RRIRTRPPRLPRPRPRPFWRPRP, the “shrunken log2 fold change” value worked out at 0.112.

Take RRIRGRPPRLPRPRPRPQQFPRP: the “shrunken log2 fold change” value was 0.239.

With RRIRARPPRLPRPRPRPGNTPRP, the “shrunken log2 fold change” value was -0.0858.

Turning to RRIRWRPPRLPRPRPRPNRIPRP, the “shrunken log2 fold change” value is -0.115.

With RRIRWRPPRLPRPRPRPHTYPRP, the “shrunken log2 fold change” value was -0.578.

Regarding RRIRMRPPRLPRPRPRPEWLPRP, the “shrunken log2 fold change” value worked out at 0.056.

As to RRIRKRPPRLPRPRPRPEWVPRP, the “shrunken log2 fold change” value is 0.478.

Turning to RRIRHRPPRLPRPRPRPTTSPRP, the “shrunken log2 fold change” value is -0.146.

In the case of RRIRERPPRLPRPRPRPMLFPRP, the “shrunken log2 fold change” value is -0.0835.

As for RRIRKRPPRLPRPRPRPLMYPRP, the “shrunken log2 fold change” value is -0.0706.

RRIRKRPPRLPRPRPRPAQRPRP: the “shrunken log2 fold change” value is 0.946.

As to RRIRMRPPRLPRPRPRPFFKPRP, the “shrunken log2 fold change” value was -0.116.

Regarding RRIRQRPPRLPRPRPRPRSAPRP, the “shrunken log2 fold change” value is 0.319.

Regarding RRIRGRPPRLPRPRPRPFPHPRP, the “shrunken log2 fold change” value is 0.155.

In the case of RRIRDRPPRLPRPRPRPGETPRP, the “shrunken log2 fold change” value was 0.0408.

In the case of RRIRERPPRLPRPRPRPHGSPRP, the “shrunken log2 fold change” value is -0.15.

In the case of RRIRARPPRLPRPRPRPLKCPRP, the “shrunken log2 fold change” value stood at 0.381.

Regarding RRIRLRPPRLPRPRPRPTVHPRP, the “shrunken log2 fold change” value is -0.131.

In the case of RRIRGRPPRLPRPRPRPDLFPRP, the “shrunken log2 fold change” value amounted to 0.723.

For the sequence RRIRRRPPRLPRPRPRPVPYPRP, the “shrunken log2 fold change” value was -0.195.

In the case of RRIRNRPPRLPRPRPRPEKYPRP, the “shrunken log2 fold change” value is -0.805.

As to RRIRIRPPRLPRPRPRPAHSPRP, the “shrunken log2 fold change” value was -0.0596.

Consider RRIRRRPPRLPRPRPRPIRMPRP, for which the “shrunken log2 fold change” value was 0.302.

For the sequence RRIRVRPPRLPRPRPRPFHMPRP, the “shrunken log2 fold change” value is -0.54.

As for RRIRMRPPRLPRPRPRPRWNPRP, the “shrunken log2 fold change” value was 0.197.

RRIRTRPPRLPRPRPRPTDKPRP: the “shrunken log2 fold change” value was -0.55.

For the sequence RRIRPRPPRLPRPRPRPLGLPRP, the “shrunken log2 fold change” value is -0.124.

Regarding RRIRHRPPRLPRPRPRPHGRPRP, the “shrunken log2 fold change” value is -0.219.

With RRIRARPPRLPRPRPRPGPFPRP, the “shrunken log2 fold change” value was 0.231.

As to RRIRFRPPRLPRPRPRPHAIPRP, the “shrunken log2 fold change” value turned out to be 0.00598.

For the sequence RRIRFRPPRLPRPRPRPVQQPRP, the “shrunken log2 fold change” value was found to be 0.355.

Turning to RRIRVRPPRLPRPRPRPIGHPRP, the “shrunken log2 fold change” value is -0.426.

Turning to RRIRFRPPRLPRPRPRPSPPPRP, the “shrunken log2 fold change” value amounted to 0.218.

RRIRYRPPRLPRPRPRPPADPRP: the “shrunken log2 fold change” value is 0.115.

On to RRIRPRPPRLPRPRPRPQDHPRP, for which the “shrunken log2 fold change” value is -0.12.

As to RRIRRRPPRLPRPRPRPCHSPRP, the “shrunken log2 fold change” value stood at 0.00408.

As to RRIRQRPPRLPRPRPRPYHNPRP, the “shrunken log2 fold change” value was -0.945.

In the case of RRIRVRPPRLPRPRPRPALYPRP, the “shrunken log2 fold change” value stood at 0.22.

In the case of RRIRHRPPRLPRPRPRPDCKPRP, the “shrunken log2 fold change” value was -0.148.

For the sequence RRIRGRPPRLPRPRPRPLTWPRP, the “shrunken log2 fold change” value came out at 0.462.

As to RRIRHRPPRLPRPRPRPLHVPRP, the “shrunken log2 fold change” value came to 0.146.

Turning to RRIRARPPRLPRPRPRPSAFPRP, the “shrunken log2 fold change” value came out at 0.54.

Take RRIRKRPPRLPRPRPRPWFIPRP: the “shrunken log2 fold change” value was -0.131.

Take RRIRYRPPRLPRPRPRPKNMPRP: the “shrunken log2 fold change” value is -0.477.

Regarding RRIRIRPPRLPRPRPRPWLVPRP, the “shrunken log2 fold change” value is -0.038.

In the case of RRIRQRPPRLPRPRPRPSISPRP, the “shrunken log2 fold change” value is -0.22.

In the case of RRIRFRPPRLPRPRPRPNEAPRP, the “shrunken log2 fold change” value was -0.0305.

As for RRIRHRPPRLPRPRPRPAHRPRP, the “shrunken log2 fold change” value turned out to be 0.162.

As for RRIRKRPPRLPRPRPRPGRYPRP, the “shrunken log2 fold change” value amounted to 0.426.

In the case of RRIRERPPRLPRPRPRPMEKPRP, the “shrunken log2 fold change” value is -0.0775.

Consider RRIRFRPPRLPRPRPRPEDYPRP, for which the “shrunken log2 fold change” value worked out at 0.0145.

In the case of RRIRERPPRLPRPRPRPKIVPRP, the “shrunken log2 fold change” value was -0.0778.

In the case of RRIRRRPPRLPRPRPRPAWDPRP, the “shrunken log2 fold change” value amounted to 0.324.

Turning to RRIRNRPPRLPRPRPRPDHSPRP, the “shrunken log2 fold change” value was -0.22.

With RRIRSRPPRLPRPRPRPISHPRP, the “shrunken log2 fold change” value is -0.421.

With RRIRERPPRLPRPRPRPFCTPRP, the “shrunken log2 fold change” value was -0.304.

Consider RRIRLRPPRLPRPRPRPHFIPRP, for which the “shrunken log2 fold change” value is -0.249.

Consider RRIRARPPRLPRPRPRPMEMPRP, for which the “shrunken log2 fold change” value was 0.163.

Take RRIRIRPPRLPRPRPRPWCFPRP: the “shrunken log2 fold change” value was -0.596.

For RRIRCRPPRLPRPRPRPAIIPRP, the “shrunken log2 fold change” value is -0.786.

In the case of RRIRKRPPRLPRPRPRPLIVPRP, the “shrunken log2 fold change” value was -0.223.

Turning to RRIRTRPPRLPRPRPRPMFNPRP, the “shrunken log2 fold change” value was -0.643.

For the sequence RRIRVRPPRLPRPRPRPSQHPRP, the “shrunken log2 fold change” value was -0.39.

In the case of RRIRTRPPRLPRPRPRPLEWPRP, the “shrunken log2 fold change” value worked out at 0.178.

Regarding RRIRERPPRLPRPRPRPWEWPRP, the “shrunken log2 fold change” value is 0.0992.

Take RRIRMRPPRLPRPRPRPPMRPRP: the “shrunken log2 fold change” value turned out to be 1.62.

With RRIRGRPPRLPRPRPRPMEDPRP, the “shrunken log2 fold change” value is -0.0262.

Turning to RRIRQRPPRLPRPRPRPTPCPRP, the “shrunken log2 fold change” value is -0.138.

Regarding RRIRGRPPRLPRPRPRPTVRPRP, the “shrunken log2 fold change” value is 0.452.

As for RRIRNRPPRLPRPRPRPGQKPRP, the “shrunken log2 fold change” value was -0.000842.

Consider RRIRFRPPRLPRPRPRPDRVPRP, for which the “shrunken log2 fold change” value amounted to 0.0813.

As for RRIRDRPPRLPRPRPRPECGPRP, the “shrunken log2 fold change” value amounted to 1.71.

RRIRGRPPRLPRPRPRPDPEPRP: the “shrunken log2 fold change” value came to 0.593.

With RRIRQRPPRLPRPRPRPGHWPRP, the “shrunken log2 fold change” value was 0.0453.

Regarding RRIRQRPPRLPRPRPRPEIQPRP, the “shrunken log2 fold change” value is 0.0108.

On to RRIRNRPPRLPRPRPRPRNIPRP, for which the “shrunken log2 fold change” value is -0.168.

With RRIRLRPPRLPRPRPRPAPNPRP, the “shrunken log2 fold change” value stood at 0.555.

Regarding RRIRTRPPRLPRPRPRPHDEPRP, the “shrunken log2 fold change” value was found to be 0.00408.

For the sequence RRIRKRPPRLPRPRPRPGDPPRP, the “shrunken log2 fold change” value turned out to be 1.21.

As for RRIRQRPPRLPRPRPRPHIAPRP, the “shrunken log2 fold change” value was -0.142.

As to RRIRQRPPRLPRPRPRPCIHPRP, the “shrunken log2 fold change” value was -0.734.

For RRIRHRPPRLPRPRPRPYHLPRP, the “shrunken log2 fold change” value is -0.085.

Take RRIRNRPPRLPRPRPRPTWSPRP: the “shrunken log2 fold change” value was -0.352.

Consider RRIRLRPPRLPRPRPRPAHWPRP, for which the “shrunken log2 fold change” value turned out to be 0.608.

Turning to RRIRNRPPRLPRPRPRPPFDPRP, the “shrunken log2 fold change” value turned out to be 0.141.

RRIRYRPPRLPRPRPRPCTSPRP: the “shrunken log2 fold change” value was -0.679.

Turning to RRIRSRPPRLPRPRPRPTMEPRP, the “shrunken log2 fold change” value turned out to be 0.317.

In the case of RRIRNRPPRLPRPRPRPRKHPRP, the “shrunken log2 fold change” value was -0.194.

With RRIRERPPRLPRPRPRPRCGPRP, the “shrunken log2 fold change” value came out at 0.146.

Regarding RRIRARPPRLPRPRPRPSHMPRP, the “shrunken log2 fold change” value was -0.184.

As for RRIRKRPPRLPRPRPRPWCTPRP, the “shrunken log2 fold change” value is -0.0115.

RRIRGRPPRLPRPRPRPFRKPRP: the “shrunken log2 fold change” value is -0.0984.

On to RRIRWRPPRLPRPRPRPCQHPRP, for which the “shrunken log2 fold change” value is -0.116.

As to RRIRQRPPRLPRPRPRPGTEPRP, the “shrunken log2 fold change” value stood at 0.119.

For the sequence RRIRKRPPRLPRPRPRPPPFPRP, the “shrunken log2 fold change” value came out at 0.442.

On to RRIRLRPPRLPRPRPRPQEYPRP, for which the “shrunken log2 fold change” value is -0.846.

For RRIRLRPPRLPRPRPRPAYAPRP, the “shrunken log2 fold change” value was -0.0747.

As to RRIRVRPPRLPRPRPRPMNRPRP, the “shrunken log2 fold change” value was -0.182.

For the sequence RRIRLRPPRLPRPRPRPWQMPRP, the “shrunken log2 fold change” value was 0.123.

As to RRIRDRPPRLPRPRPRPCGMPRP, the “shrunken log2 fold change” value is 0.0207.

As to RRIRERPPRLPRPRPRPCGFPRP, the “shrunken log2 fold change” value is -0.303.

In the case of RRIRHRPPRLPRPRPRPTLAPRP, the “shrunken log2 fold change” value was determined as 0.382.

For the sequence RRIRLRPPRLPRPRPRPNDQPRP, the “shrunken log2 fold change” value is -0.19.

In the case of RRIRQRPPRLPRPRPRPNYVPRP, the “shrunken log2 fold change” value is -0.426.

For the sequence RRIRTRPPRLPRPRPRPICWPRP, the “shrunken log2 fold change” value was -0.13.

With RRIRYRPPRLPRPRPRPDFSPRP, the “shrunken log2 fold change” value is 0.0939.

RRIRKRPPRLPRPRPRPALWPRP: the “shrunken log2 fold change” value came out at 0.27.

Regarding RRIRYRPPRLPRPRPRPIMQPRP, the “shrunken log2 fold change” value was -0.107.

With RRIRARPPRLPRPRPRPVQFPRP, the “shrunken log2 fold change” value was -0.0854.

As for RRIRTRPPRLPRPRPRPLMTPRP, the “shrunken log2 fold change” value was 0.0717.

For RRIRLRPPRLPRPRPRPQCWPRP, the “shrunken log2 fold change” value is -0.0159.

Consider RRIRIRPPRLPRPRPRPALKPRP, for which the “shrunken log2 fold change” value was -0.0298.

For RRIRMRPPRLPRPRPRPMTIPRP, the “shrunken log2 fold change” value was -0.329.

RRIRNRPPRLPRPRPRPMDGPRP: the “shrunken log2 fold change” value was -0.261.

Regarding RRIRRRPPRLPRPRPRPLHEPRP, the “shrunken log2 fold change” value was -0.0162.
